Assay: label from the status in PepcDB records

Sequence | protein production
MKKLINIILLSLIFVFCFNLKVLANDNLESSKEKIDNDSRIERFYDYINNLETEEDILGNMSAKEYIMNYLESGEDPITLKKIGASILSYIFRELNIVLKFIASILVIALLSALLKNLQDAFNIEEGVTQIAFFACYALLIMLLTKSFFISLNLGKEVLTSIIDFMNVIVPVIVMLIATSGGVTSAVTIDPIVLGAVSITPRIYTYFLFPLILAYFTLQFVNNLSSEFKIDRMCKFIKQVVMISQGFILTIFVGILTLRGMTADTLDAVAVKTVKFAVDNFVPIVGKAFSDAITTVAGYSLAMKSVITSLGVIVIVVIVIYPIIKIGLMAICFKLTSAVIEPVVDSKISSSVETVGEALFMIMSCIISVSIMFFIMASMMATAGNFIVGG | failed
MKKLLTFIMACVISLGATAQISEKAFEKWHQNKYSMFIHFGLYSELGGVWEGNPVTRGYSEQIQSFAGIFSDWYGDTALRFNPTLFDADAIVSLAKEAGMRSIIITTKHHDGFCMFRTATTDYNSYDATPGKRDFIKEMAEACKRGGINFGIYFSLIDWHFPQAYPISSHNCDFITPQHHEFTKAQVTELLTNYGPISELWFDMGSNTPEQSKELYQLVHRLQPDCMVSGRLGNDQYDFSVMADNTYPEGSLQTAWQTAASMFDETWSYRSWQKRGDVHTKAMEKLRSLINVVSHGGNFLLNIGPKGDGSVVPFEREVLKEIGIWLKKNGEAIYGTEASPFREQFEWGTITRKGNNLYLILSGNRPADGKITLNVPGCKLQKADIKAIQKGQEMIFTLPADAYGKDIQVICATFDQPVKPQPMAAQRTPNYSYSCFDYYSNYRSTVSYQWSINKSNLNALEFTYTPQENGKELLVEVDGIPYTVTLDAGKAQALNLPSKTVWGQRYFCGPGSGLFDAPATIHTDPDKAPVRKGQWKEVNEEKAMFPSNILESYFLMQQVESPKAQDILVDVGAGNGIEIYLNGKSVMKHLNPYRCKFREEKVLLPLQKGSNQIVVRIYNRFEKETGYLLRPSAEQVIYKQKFTLPQVAKGKVHTVVVKQNNLPSIHKDTELSNLKVEAK | failed
MKKLVHLSDFHYDGLRLSEEMLAEAIAVSNQVQPDLVLLTGDYVTTTPQPIHQLAKRLQKLQSHAGIYAILGNHDLYQKNSKTEITQALTKAGIQVLWNEIAYPLGEELPIVGIVDYYYREFNPQLLFNQLEPTTPRIVLCHNPDTAAMLQGWRVDLQLSGHTHGGLEHHHHHH | failed
MKKQFLFLLLAVILLSSCATATLSEFPGVGRVKQYDFYSYDIPPAFDGFRIGFASDFHYESRFKRSELNSAVRALKSMHADVLLLGGDYRGKKGGNLDTLFTALSRVYTPYGTFAVMGNHDYGYCYSEVVEAMQKNHVRLMEHKSYKLMKDGQYIIVSGVRNPFDLKKNGDSPSQHFPADDFIILLTHTPDYAEDTDVSNANLVLAGHTHGGQVSLFKKYSPVKHSIYGNRFLTGWKENSKGTPIIITNGLGTSRVDVRLFTPSEVVLVVLHRVEKQKE | failed
MKKRFSNKVLIIGYGSVSQCTLPLLLDKLDIPLENITLIDFEDKSKALKKYTNQGLTFVREKITPENLDQVLSQNMENEGMIIDLSWNIDANEIVKWCHDHDVLYVNTSVEVWDPAEKFLTQSLLEKSLYLRQMRLQELSRDWKDAPTAVVDHGANPGLITHFVKQGLLDIAARTCEDKKVSPEDEQEIALLAKNRDFARLARKLGIRVIHCSERDTQIASRPKEVNEFVGTWSIEGLREEGTAPVEIAWGTHESKLPPLAHIPPYGPKNVILLPQMGVNAWVRSWIPDEEIVGMAIRHGESYGLSKLLTVWEGEKAVYRPTVHYAYMPSHDTLSSLCELRGRNYELQPRLRIMTNEIVSGEDIMGALLMGHSYNSWWTGSALSIEEARSLAPGQNATTLQVAAGIVAAILWMLENPREGVKTPEDLPHDFVLDIARPYLGKFISTPSDWTPLKNRKIFFKESPAVKHDPDPWQFENFIFVGLEHHHHHH | not failed
MKKRILFVSAIAIQCMMTSMALANDITSQQTAENIPFEKNQLSVRLNGEQYRSAFQIDLSDPNLILTIDTDLIPEEDIDALLPELNDSEEAQVSAFNEPKSLALRIEAKEKAANGDFVGALALLNEAEALTENPAKVLSMKGSVHYKLNQVELAIVSWKKALELDPSLTEVSDIIQWLEK | failed
MKKSKYLTLLSVAALTLLTSGLGSQAVLADTDTAQTTNTSTNTTTDTSKTSTALNHQEAKGQKLTTPVGTLPNAQDAISNKAVLKRVHGYSWKTTPDVSAAGSQKATVVITYTDGTTSEVEVDLEVTGTGCASQNSPVAKTGLTVKVGKSLTARSAISNLSRLRNVDSVTWKQAPSTAKAGTVKGTVLVTYTDKSTDTVDVTVKVSSVVTTKKSVKKSKKKQYVTKTRKIILDRPGKNKTITQKVKLSRTVTTTTTTTKTYTDGKLTKTSKKAKKSYGKWSKGTWKSYKVPAISGYKRSTTKVKAKAVTSKTKNITVKVSYKRVLHKPANAPYYDPADMRAKTGAYYFQSSEKRAYPNLAKYKNVWIRVSILGNRVYVMSGKKVIYTMYSSAGRFEMTNGKYQSDTPRGTFYLKAAYGPSFMSSDGVGARYYMAYYGSDYLFHSVPINNYGSGVYYKGYHYGYGGVGSTAHLTVQGTNPDSLGCIRLTLSDARWLYGQRTSGKLKVGTKVVIKYK | failed
MKKSSILVFLLTYGLFYVSSILFPIDRMWYDALEKPSWTPSGMTIGIVWTVLYGLIALSVAIIYNKYGCKPKTFWFIFLLNYMCNQAFSYFQFSQKDLFLATIDCLLVAVTTLLLIAVSSSLSKVSTWLLIPYFLWATFATYLSWSIYSIN | failed
MKKTTLFVLGLLFNSFLNAVDGISKTDLSSLNLAEDSAPLNHPNAQKLSLKNAWTRVLSNHEGLHAQEYAIKRASKMKLAAKLSFLPQIDLSAFYVYLSNPIKMDFASQKQPGVQKATNQIHQGIQNIQQNIPSQVLTPQIQAGMQGVMQGFGALSSTLEAPLLFSKQNVVIGALSIIYPLYMGGARFTMVRIADLMQKDANEVYRLKKLSTFQELVSVYYGMVLNAEVAETLEEVEKGHYKHFQNALKMQKVGQIARVETLGAQVAYDKAHIASVKAKDVLEVSQLSFNSILSSKDDLVPSSKLEIRTEKNLPDLSFFVSSTLNSYPVLKTLENQIQISKENTKLQIAKFLPQVSFFGSYIMKQNNSVFEDMIPSWFVGVAGRMPILSPTGRIQKYQASKLAELQVSSEQIQAKKNMELLVNKTYKETLSYLKEYKSLLSSVELAKENLKLQEQAFLQGLSTNAQVIDARNTLSSIVVEQKSVAYKYIVSLANLMALSDHIDLFYEFVY | failed
MKKTWKVFLTLVTALVAVVLVACGQGTASKDNKEAELKKVDFILDWTPNTNHTGLYVAKEKGYFKEAGVDVDLKLPPEESSSDLVINGKAPFAVYFQDYMAKKLEKGAGITAVAAIVEHNTSGIISRKSDNVSSPKDLVGKKYGTWNDPTELAMLKTLVESQGGDFEKVEKVPNNDSNSITPIANGVFDTAWIYYGWDGILAKSQGVDANFMYLKDYVKEFDYYSPVIIANNDYLKDNKEEARKVIQAIKKGYQYAMEHPEEAADILIKNAPELKEKRDFVIESQKYLSKEYASDKEKWGQFDAARWNAFYKWDKENGILKEDLTDKGFTNEFVK | failed
MKKVILLGATSNISKYLIPRLLAKNDVELTLFARQATRRLHQYAAQSQVTLTNGNWNNSADLTAAIAGQDIVYLATGHFTTANQNVVDAMKQNGVERLIVAGGLGIYDEVAGKFGIWNAQMMGDYTEIKRAAAVIDNSGLNYTFLRMAWLYNNDQHTDYKVIPQGMPFKDTQVTRQAVADLITEIIHNPQLYQRSSIGVAEPNTAWNKPGFY | failed
MKKVLILFAHPRMEKSRANTTLLKHIPSAENITFHDLYELYPDFNIDVEAEKQLLLLHDIIIWQHPFYWYSCPPLMKQWIDMVLEFGWAYGPGGTALKDKIIFNAITTGGANATYNAGGHNRFTMQEYLRPFEQTAHLCKMIYFPPFLVQGSHRLTDEELQRFSQQYVILLTKMSQGNFEEAHMKDITFLNEICVKPR | failed
MKKWWMLTICIVFIVAAVVPVRAAAASHPLFANVIVVFQQQVDEQAVKTLHGNVTKRFEVIPAVAATLPVTAVELLRRWPGVDYVQQDTTVAIDGQITDWGVEKVKAPVMHTHGVTGKGVKIAILDTGVDLKHPDLRVVGGACVLSYCPNSYQDDNGHGTHVAGIIAAKDNDIGTVGVAPNASIYAVKVLDRYGEGNVSDILSGIEWAMKHRVDIINLSLAAPEDAPALKAAIRKAYESGILVVAAAGNNGYANGTGDTVEYPAKYDSAIAVSAVNKENVRLPYSATGPAIEVAAPGEGVYSTVPVALDGDGRRDGYTHMSGTSMAAPFVTGVLALYKQQYPERTNIELRQMLRDRALDLGTPGRDPWYGYGLVRAVSNQPPELKVKLLSVKKGEVAFSVTLSGSAVKGYRVYRNGKQIETLQTAGTYTDYVVKGTYQYEFASIRNDGAESALTAPITVNVPDPYYKDVSASAWYMPEIAYLSSRGIVSGYNNGTIQPYNTITRAEVAVMLGRALHLDATKRATVFRDVASSDFASGYIQSAYERGLINGYPDGTFRPQQPITRAETAIILSRAYPLPGGSSMMFKDVTARVTGHEAIAKLAAARIAEGYPDGTFRPYQFVKRLEFFVFTARADNERFR | failed
MKKYFITIMILLFGTLILAACQNSDEADNYEPPKVDLKDQIPIILIHGSGGNASSLDKMADQLMNEYRSSNEALTMTVNSEGKIKFEGKLTKDAKRPIIKFGFEQNQATPDDWSKWLKIAMEDLKSRYGFTQMDGVGHSNGGLALTYYAEDYAGDKTVPTLRKLVAIGSPFNDLDPNDNGMDLSFKKLPNSTPQMDYFIKNQTEVSPDLEVLAIAGELSEDNPTDGIVPTISSLATRLFMPGSAKAYIEDIQVGEDAVHQTLHETPKSIEKTYWFLEKFKTDETVIQLDYK | failed
MKKYLAGLAAVSVAGGAAPTLDSVQAAPEQNTQKAATTVQASASNNSSYTVNTSVLHVRAGSSTSHDIISRVYNGQSLNVIGEENGWFKININGKTGFVSGEFVSKSGAANNNVSTGGNNKVTADVLRVRTAPNTSSSVSGRVYAGQTLNVIGQENGWVKINHNGQVGYVSGEFVSGVSSNGGSSNNNTNNNNQEVKPASGNYTVNVSSLRVRTGPSTSHTTVGSVKKGQVVQVVGEVQDWFKINYAGQTAYISKDYVTKGGSNENVTEGNKQEQNNNGTIQTGGSYVVNATSLRVRTGPAAYHSVIGGVLNGTTLNVVGSENGWFKVNYQGKTGFVSSEFVKFVKGGTTTPEQPKQPEKPNQGTIGDYYINASALNVRSGEGTNYRIIGALPQGQKVQVISENSGWSKINYNGQTGYIGTRYLSKTPVGGAVDNKPNNNQNNNQNNNNNNNTGNNSGDSSSVLAYAKSMQGVPYVWGGTSANGVDCSGYIYHVFKKFGHNISRQSVAGYWSSLPKTSSPQPGDLIYFQNTYKSGPSHMGIYLGGGSFIQAGDKGVAIASLSNSYWKSHFLGYTKAP | failed
MKLAEALILRADLQKELMSLKNRINQNLLVQEGEKPSENPYTLYDEILLKVSELEGLILKINKTNSNYITSNNESISDLIVKRDMLGKKISILKEIAEEATVKVNRYSQTEIKIFSAMKVDQLQREINKYSKEYRELDTKLQGLNWTIDLME | failed
MKLAIIIPVYNAEETIKRAILSVDTSVPYEIICINDGSTDQTQHVLTELQQKHPHIKVIHQSNQGAARSRNVGLEAMSEDVDAFLFLDADDEFLPSRIDLMVNAFNKNKETDVVIGQMARDVNGEWQVISTHQSMVKDAIVTLDRKPDILQSIGPGAKLFSSKYAGLRFDEDVVFCEEHTFIVKAFSKARDIQLIPNIVYGYNEREGSVTAQRADTFLPYMSDALKVRQRVMELLLLLDEKIYYSYRMDNLIVSYLIQAHLKKNNKITQSLLESVIEYMKAMQHTHYSGEAMFRIVRAVEQSATHWTKPLYLQWKKALSEVGIGRPGLIRFKLQVIPKKISFSGKESLKRIFKK | failed
MKLALFDLDHTLLNTDSDHSWGEFLVNEGLVDPVHHRQMNDKFYEDYKAGQLDPIAYNEFVFEFLTQNTPEVLTDLHALFMQKVIRPQMRPKGFDGIKKHQNLGHDIVGITATSDFITAPIFRAFGITEIIATNAEVQDGKYTGKVAGLPCYQKGKLARLDQWLAGRSVEESWAYSDSINDRFLLEYATHAIAVNPDDRLEKLAIDQGWTIEDWSI | failed
